From publication PMC5383425, “Differential CLE peptide perception by plant receptors implicated from structural and functional analyses of TDIF-TDR interactions” (PLoS ONE, 2017)
Changes are numbered by the printed parent chain. Square brackets hold non-standard residues; d marks the D form. Ends that are not written are not given here. Hyp = O=C(O)[C@@H]1C[C@@H](O)CN1

Assays:
Test in all cases: ITC; 0.5–1 mM peptide titrated into 10–40 μM ecdTDR; 25°C; 10 mM sodium citrate, 100 mM NaCl, pH 5.5; fitted to one set of binding sites; MicroCal Auto-iTC200
Conditions in all cases: both partners purified
ecdTDR G186A mutant = molecular target: T1, ecdTDR G186A mutant (Arabidopsis thaliana, UniProt Q9FII5 30-642, G186A)
T1 construct: TDR/PXY of A. thaliana, extracellular domain, residues 30-642; source: High Five insect cells (baculovirus), secreted, purified as the wild type (Ni-NTA, size-exclusion chromatography)
T1 sequence (looked up): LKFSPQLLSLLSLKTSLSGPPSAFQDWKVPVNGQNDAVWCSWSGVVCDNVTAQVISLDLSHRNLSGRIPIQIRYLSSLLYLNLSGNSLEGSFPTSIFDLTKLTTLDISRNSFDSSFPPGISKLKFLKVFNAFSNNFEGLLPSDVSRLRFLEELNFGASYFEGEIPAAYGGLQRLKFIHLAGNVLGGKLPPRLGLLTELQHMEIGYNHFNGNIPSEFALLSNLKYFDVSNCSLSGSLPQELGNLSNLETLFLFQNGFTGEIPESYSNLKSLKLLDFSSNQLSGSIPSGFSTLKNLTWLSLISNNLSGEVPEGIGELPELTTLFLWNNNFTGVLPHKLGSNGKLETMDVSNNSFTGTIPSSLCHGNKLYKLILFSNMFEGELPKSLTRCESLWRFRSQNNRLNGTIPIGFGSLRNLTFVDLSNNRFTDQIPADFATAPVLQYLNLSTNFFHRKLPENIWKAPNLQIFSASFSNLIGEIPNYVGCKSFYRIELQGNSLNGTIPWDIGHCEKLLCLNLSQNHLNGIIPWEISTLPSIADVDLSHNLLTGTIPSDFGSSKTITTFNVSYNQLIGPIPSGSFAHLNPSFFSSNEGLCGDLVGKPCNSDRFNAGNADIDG

ecdTDR S187A mutant = molecular target: T2, ecdTDR S187A mutant (Arabidopsis thaliana, UniProt Q9FII5 30-642, S187A)
T2 construct: TDR/PXY of A. thaliana, extracellular domain, residues 30-642; source: High Five insect cells (baculovirus), secreted, purified as the wild type (Ni-NTA, size-exclusion chromatography)
T2 sequence (looked up): T1 sequence (looked up) with A157G, S158A

ecdTDR R421A mutant = molecular target: T3, ecdTDR R421A mutant (Arabidopsis thaliana, UniProt Q9FII5 30-642, single alanine substitution of R421)
T3 construct: TDR/PXY of A. thaliana, extracellular domain, residues 30-642; also called single alanine substitution of R421; source: High Five insect cells (baculovirus), secreted, purified as the wild type (Ni-NTA, size-exclusion chromatography)
T3 sequence (looked up): T1 sequence (looked up) with A157G, R392A

ecdTDR Q282A mutant = molecular target: T4, ecdTDR Q282A mutant (Arabidopsis thaliana, UniProt Q9FII5 30-642, Q282A)
T4 construct: TDR/PXY of A. thaliana, extracellular domain, residues 30-642; source: High Five insect cells (baculovirus), secreted, purified as the wild type (Ni-NTA, size-exclusion chromatography)
T4 sequence (looked up): T1 sequence (looked up) with A157G, Q253A

Measured: binding result

B1: Tracheary Element Differentiation Inhibitory Factor (TDIF) peptide (peptide)
peptide: HEV[Hyp]SG[Hyp]NPISN
notes: TDIF, the 12-residue CLE peptide processed from CLE41 and CLE44 of A. thaliana; printed as HEV(Hyp)SG(Hyp)NPISN; numbers count on: the 12-residue peptide; CLE44 encodes the same peptide; also called wild type TDIF; wtTDIF; source: synthetic peptide (peptide 2.0)
binds: all assays above
